According to US20160145322A1:

Molecular target: G protein of RSV A/Long (ATCC Cat. No. VR-26), on virus (Respiratory syncytial virus A/Long) (UniProt P20895)
Experiment: cell-based or functional assay

G protein of RSV A/Long (ATCC Cat. No. VR-26), on virus (Respiratory syncytial virus A/Long), sequence (P20895 whole entry): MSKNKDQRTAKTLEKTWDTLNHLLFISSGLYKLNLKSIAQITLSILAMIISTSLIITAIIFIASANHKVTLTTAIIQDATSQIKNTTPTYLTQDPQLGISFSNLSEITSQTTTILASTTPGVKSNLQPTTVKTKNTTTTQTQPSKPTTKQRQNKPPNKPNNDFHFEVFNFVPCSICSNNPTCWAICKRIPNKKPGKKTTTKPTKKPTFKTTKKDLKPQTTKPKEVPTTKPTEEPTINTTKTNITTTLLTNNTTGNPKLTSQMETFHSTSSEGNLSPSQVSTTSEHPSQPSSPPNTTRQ

B1: CR9505 (an antibody based on 131-2G, comprising the heavy and light chain variable region of 131-2G, as disclosed in WO 2009/055711) (antibody, from another filing, V domains shown)
VH: EVQLQQSGPELVKPGTSVKISCKASGYSFTGFTMNWVKQSHGKNLEWFGLINPFNGNTGYNQKFKGKATLTVDKSSSTAFMELLSLTSEDSAVYYCARSGKSYDYEAWFTYWGQGTLVTVSA
VL: DIVMTQTTLSLPVSLGNQASISCRSSQTIVHTNGNTYLEWYLQKPGQSPKLLIYKVSNRFSGVPDRFSGSGSGTDFILNISRVEAEDLGVYYCFQGSHVPFTFGSGTKLEIKR
B1 was tested, and the Neutralization IC50, plaque reduction assay, RSV A/Long was 0.018 µg/mL.
